From publication PMC8121907

Legend:
[1] = molecular target: Vip3Bc1 (wild type, full length, unprocessed) (Bacillus thuringiensis); assay: SEC; Superose 6 increase 10/300 GL, 25 mM TrisHCl pH 7.5, 150 mM NaCl; undigested Vip3Bc1 loaded at 1 mg/mL
[2] = molecular target: Vip3Bc1 (wild type, full length, unprocessed) (Bacillus thuringiensis); assay: cryo-EM structure; single particle cryoEM of undigested Vip3Bc1, C2 symmetry applied, global resolution 3.9 Å
[3] = molecular target: activated Vip3Bc1 (Vip3Bc1^act), trypsin-digested Vip3Bc1 (Bacillus thuringiensis); assay: cryo-EM structure; single particle cryoEM of trypsin-digested Vip3Bc1^act, tilted collection, C4 symmetry applied, global resolution 4.8 Å; model built by homology

Substance | stoichiometry N [1] | stoichiometry N [2] | stoichiometry N [3]
Vip3Bc1 (wild type, full length, unprocessed) (natural protein) | 4 | 4 | –
activated Vip3Bc1 (Vip3Bc1^act), trypsin-digested Vip3Bc1 (complex) | – | – | 4
